Experimental data published in patent US20200031912A1 (published 2020).

target: human recombinant FcRn protein (human, UniProt P55899 24-297); assay: Biacore
Sequence (P55899 24-297): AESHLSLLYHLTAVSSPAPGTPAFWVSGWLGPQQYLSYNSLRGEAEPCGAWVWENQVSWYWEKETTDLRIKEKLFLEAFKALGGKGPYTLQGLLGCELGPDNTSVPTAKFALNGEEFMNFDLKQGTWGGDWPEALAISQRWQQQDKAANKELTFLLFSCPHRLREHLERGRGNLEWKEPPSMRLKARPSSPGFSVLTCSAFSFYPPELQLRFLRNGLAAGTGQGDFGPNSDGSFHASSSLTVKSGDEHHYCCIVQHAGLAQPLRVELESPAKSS

Binder | Kd [nM]
ABD02 (SEQ ID NO: 4) (designed binder) GPSVFLFPPKPKDTLMISRTPEVTCVFVDYRADYLEVKFNWYVDGAEVHNAKTKPRQYDPLYGYRVVSVLTVLHQDWLNGKEYTCKVSNKALPAPIEKTISKDK | 21
ABD01 (SEQ ID NO: 3) (designed binder) GPSVFLFPPKPKDTLMISRTPEVTCVFVDYRADYLEVKFNWYVDGVEVHNAKTKPRQYDPLYGYRVVSVLTVLHQDWLNGKEYTCKVSNKALPAPIEKTISKDK | 4.18
ABD05 (SEQ ID NO: 7) (designed binder) GPSVFLFPPKPKDTLMISRTPEVTCVFVDYRADYLEVKFNWYVDGAEVHHAKTKPRQYDPLYGYRVVSVLTVSHQDWLNGKEYTCKVSNKALPAPIEKTISKDK | 9.1
ABD03 (SEQ ID NO: 5) (designed binder) GPSVFLFPPKPKDTLMISRTPEVTCVFVDYRADYLEVKFNWYVDGAEVHHAKTKPRQYDPLYGYRVVSVLTVSHQDWLNGKEYTCKVSNKALPAPIQKTISKDK | 11.4

Results, then the binder that gave them:

Kd [nM] | Binder
13 | template (Macaque) CH2 domain molecule of SEQ ID NO: 2 (other) GPSVFLFPPKPKDTLMISRTPEVTCVVVDVSQEDPDVKFNWYVNGAEVHHAQTKPRETQYNSTYRVVSVLTVTHQDWLNGKEYTCKVSNKALPAPIQKTISKDK
8.9 | ABD04 (SEQ ID NO: 6) (designed binder) GPSVFLFPPKPKDTMMISRTPEVTCVFVDYRADYLEVKFNWYVDGAEVHHAKTKPRQYDPLYGYRVVSVLTVSHQDWLNGKEYTCKVSNKALPAPIEKTISKDK
12 | B11, a template CH2 domain molecule (SEQ ID NO: 12) (designed binder) GPSVFLFPPKPKDTLMISRTPEVTCVVVDYRADYLEVKFNWYVDGVEVHNAKTKPRQYDPLYGYRVVSVLTVLHQDWLNGKEYKCKVSNKALPAPIEKTISKAK
